{"source": "paper PMC7617797", "about": "“The phosphorylated trimeric SOSS1 complex and RNA polymerase II trigger liquid-liquid phase separation at double-strand breaks”", "binders": {"B1": {"name": "61-mer ssDNA (ssDNA)", "DNA": "GACGCTGCCGAATTCTACCAGTGCCTTGCTAGGACATCTTTGCCCACCTGCAGGTTCACCC"}, "B2": {"name": "R-loop (mixed)", "DNA 1": "B1 DNA", "DNA 2": "GGGTGAACCTGCAGGTGGGCGGCTGCTCATCGTAGGTTAGTTGGTAGAATTCGGCAGCGTC", "RNA": "AAAGAUGUCCUAGCAAGGCAC"}}, "key": {"hSSB1 Y115A": {"biological_target": "hSSB1 Y115A (Homo sapiens, UniProt Q9BQ15 1-211, Y115A)", "sequence (Q9BQ15 whole entry Y115A)": "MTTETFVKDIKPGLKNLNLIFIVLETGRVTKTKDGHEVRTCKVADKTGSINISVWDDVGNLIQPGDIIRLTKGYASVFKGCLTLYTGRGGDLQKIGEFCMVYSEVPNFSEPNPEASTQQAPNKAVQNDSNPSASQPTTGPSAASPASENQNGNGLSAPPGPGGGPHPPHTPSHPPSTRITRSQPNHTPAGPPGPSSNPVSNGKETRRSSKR", "assay": "EMSA; EMSA: 25 mM Tris-HCl pH 7.5, 1 mM DTT, 5 mM MgCl2, 100 mM NaCl, 20 min at 37 C; 10 nM substrate; protein 22-167 nM (RPA 5-40 nM); 7.5% native PAGE, 0.5x TBE, 4", "details": "protein: recombinant"}, "hSSB1 Y102A": {"biological_target": "hSSB1 Y102A (Homo sapiens, UniProt Q9BQ15 1-211, Y102A)", "sequence (Q9BQ15 whole entry Y102A)": "as the sequence (Q9BQ15 whole entry Y115A) above, with Y102A, A115Y counted along it", "assay": "EMSA; EMSA: 25 mM Tris-HCl pH 7.5, 1 mM DTT, 5 mM MgCl2, 100 mM NaCl, 20 min at 37 C; 10 nM substrate; protein 22-167 nM (RPA 5-40 nM); 7.5% native PAGE, 0.5x TBE, 4", "details": "protein: recombinant"}, "hSSB1 Y102A/Y115A": {"biological_target": "hSSB1 Y102A/Y115A (Homo sapiens, UniProt Q9BQ15 1-211, Y102A;Y115A)", "sequence (Q9BQ15 whole entry Y102A/Y115A)": "as the sequence (Q9BQ15 whole entry Y115A) above, with Y102A counted along it", "assay": "EMSA; EMSA: 25 mM Tris-HCl pH 7.5, 1 mM DTT, 5 mM MgCl2, 100 mM NaCl, 20 min at 37 C; 10 nM substrate; protein 22-167 nM (RPA 5-40 nM); 7.5% native PAGE, 0.5x TBE, 4", "details": "protein: recombinant"}, "hSSB1;INTS3;c9orf80 [1]": {"biological_target": "T1, hSSB1;INTS3;c9orf80 (Homo sapiens;Homo sapiens?;Homo sapiens?, UniProt Q9BQ15;Q68E01;Q9NRY2 1-211;1-1043;1-104, ||)", "T1 sequence (Q9BQ15 whole entry, chain 1 of 3)": "as the sequence (Q9BQ15 whole entry Y115A) above, with A115Y counted along it", "T1 sequence (Q68E01 whole entry, chain 2 of 3)": "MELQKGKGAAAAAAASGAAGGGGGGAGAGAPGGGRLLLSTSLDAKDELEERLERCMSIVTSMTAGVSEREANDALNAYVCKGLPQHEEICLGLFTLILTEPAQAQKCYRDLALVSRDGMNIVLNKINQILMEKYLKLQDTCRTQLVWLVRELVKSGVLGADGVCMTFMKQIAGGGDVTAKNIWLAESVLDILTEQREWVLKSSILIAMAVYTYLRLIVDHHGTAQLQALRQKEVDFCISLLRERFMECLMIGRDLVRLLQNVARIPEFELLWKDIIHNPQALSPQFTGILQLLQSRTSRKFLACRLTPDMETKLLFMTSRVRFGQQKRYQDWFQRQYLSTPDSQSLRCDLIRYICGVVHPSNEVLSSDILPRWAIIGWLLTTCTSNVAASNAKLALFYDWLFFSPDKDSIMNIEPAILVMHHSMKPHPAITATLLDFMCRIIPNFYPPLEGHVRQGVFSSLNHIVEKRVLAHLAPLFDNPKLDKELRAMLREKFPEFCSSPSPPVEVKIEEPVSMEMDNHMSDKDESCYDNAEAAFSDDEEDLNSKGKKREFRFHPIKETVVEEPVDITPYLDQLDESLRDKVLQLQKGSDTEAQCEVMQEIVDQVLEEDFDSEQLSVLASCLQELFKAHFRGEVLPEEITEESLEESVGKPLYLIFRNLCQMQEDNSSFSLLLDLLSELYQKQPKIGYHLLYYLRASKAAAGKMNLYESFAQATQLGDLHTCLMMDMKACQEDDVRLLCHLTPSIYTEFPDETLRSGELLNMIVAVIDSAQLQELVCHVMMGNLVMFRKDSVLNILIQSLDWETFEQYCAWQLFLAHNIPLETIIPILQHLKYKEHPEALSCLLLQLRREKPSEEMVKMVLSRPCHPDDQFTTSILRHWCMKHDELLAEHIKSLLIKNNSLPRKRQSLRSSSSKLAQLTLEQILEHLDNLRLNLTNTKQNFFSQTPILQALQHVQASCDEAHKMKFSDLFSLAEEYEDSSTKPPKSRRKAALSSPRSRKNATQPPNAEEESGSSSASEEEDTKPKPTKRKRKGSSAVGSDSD", "T1 sequence (Q9NRY2 whole entry, chain 3 of 3)": "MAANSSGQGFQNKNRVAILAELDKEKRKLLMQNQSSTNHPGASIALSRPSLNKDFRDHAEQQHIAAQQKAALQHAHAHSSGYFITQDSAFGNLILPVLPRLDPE", "assay": "competition EMSA; substrate pre-coated with RPA (10 or 30 nM); EMSA: 25 mM Tris-HCl pH 7.5, 1 mM DTT, 5 mM MgCl2, 100 mM NaCl, 20 min at 37 C; 10 nM substrate; protein 22-167 nM (RPA 5-40 nM); 7.5% native PAGE, 0.5x TBE, 4", "details": "protein: recombinant;recombinant;recombinant; tags: His6 (2BT);His6-TEV (438B);His6-TEV (438B); copies: 1;1;1; label: 5' Cy3 on strand 1; 21-nt RNA paired to strand 1 in a 21-nt bubble; 20-bp flanking duplexes"}, "hSSB1;INTS3;c9orf80 [2]": {"biological_target": "T1, hSSB1;INTS3;c9orf80", "assay": "EMSA; EMSA: 25 mM Tris-HCl pH 7.5, 1 mM DTT, 5 mM MgCl2, 100 mM NaCl, 20 min at 37 C; 10 nM substrate; protein 22-167 nM (RPA 5-40 nM); 7.5% native PAGE, 0.5x TBE, 4", "details": "protein: recombinant;recombinant;recombinant; tags: His6 (2BT);His6-TEV (438B);His6-TEV (438B); copies: 1;1;1; label: 5' Cy3; single strand"}, "[3]": {"details": "label: 5' Cy3 on strand 1, 21-nt RNA paired to strand 1 in a 21-nt bubble, 20-bp flanking duplexes"}}, "data": [{"binder": "B1", "values": [{"measurement": "binding result", "setting": "hSSB1 Y115A; label: 5' Cy3, single strand", "result": "binds"}, {"measurement": "binding result", "setting": "hSSB1 Y102A; label: 5' Cy3, single strand", "result": "binds"}, {"measurement": "binding result", "setting": "hSSB1 Y102A/Y115A; label: 5' Cy3, single strand", "result": "binds"}]}, {"binder": "B2", "values": [{"measurement": "binding result", "setting": "hSSB1 Y115A; [3]", "result": "binds"}, {"measurement": "binding result", "setting": "hSSB1 Y102A; [3]", "result": "binds"}, {"measurement": "binding result", "setting": "hSSB1 Y102A/Y115A; [3]", "result": "binds"}, {"measurement": "binding result", "setting": "hSSB1;INTS3;c9orf80 [1]", "result": "binds"}]}, {"binder": "GTGCCTTGCTAGGACATCTTT (ssDNA)", "note": "[21-mer ssDNA (pRMS630)]", "values": [{"measurement": "binding result", "setting": "hSSB1;INTS3;c9orf80 [2]", "result": "no binding"}]}]}
